In series [1] the test system is T1, dCas12j-8 E258R+D313R+D495R+D527R E258R;D313R;D495R;D527R;D369A;E567A;D658A (bacteriophage (metagenome)).
T1 sequence: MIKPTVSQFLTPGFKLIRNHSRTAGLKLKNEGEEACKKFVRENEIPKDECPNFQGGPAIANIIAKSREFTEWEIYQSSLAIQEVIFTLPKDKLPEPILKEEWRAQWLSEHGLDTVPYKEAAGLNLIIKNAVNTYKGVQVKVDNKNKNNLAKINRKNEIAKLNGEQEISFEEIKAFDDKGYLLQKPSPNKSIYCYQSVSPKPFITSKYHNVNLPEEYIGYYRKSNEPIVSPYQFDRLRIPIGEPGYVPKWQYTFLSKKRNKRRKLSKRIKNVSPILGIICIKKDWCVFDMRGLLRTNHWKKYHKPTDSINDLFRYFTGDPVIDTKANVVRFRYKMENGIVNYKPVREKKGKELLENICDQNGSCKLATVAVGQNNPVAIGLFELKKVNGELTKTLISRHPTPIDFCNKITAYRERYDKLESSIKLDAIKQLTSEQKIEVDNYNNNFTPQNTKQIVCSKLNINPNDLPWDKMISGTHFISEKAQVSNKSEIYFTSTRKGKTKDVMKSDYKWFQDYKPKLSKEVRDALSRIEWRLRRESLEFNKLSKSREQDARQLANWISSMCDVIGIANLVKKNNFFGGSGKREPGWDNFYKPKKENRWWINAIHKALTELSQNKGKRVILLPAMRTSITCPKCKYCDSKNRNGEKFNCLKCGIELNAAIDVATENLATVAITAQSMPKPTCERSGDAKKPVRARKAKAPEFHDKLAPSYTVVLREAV
As to conditions: HEK293T cells; panel 1e (compare within a panel only); scale: mean GFP / mean GFP of wild type, printed, no background subtraction.

Series [2] deals with T2, dCas12j-8 D234R D234R;D369A;E567A;D658A (bacteriophage (metagenome)).
T2 sequence: T1 sequence with D234R, R258E, R313D, R495D, R527D
As to conditions: HEK293T cells; panel 1c (compare within a panel only); scale: mean GFP / mean GFP of wild type, printed, no background subtraction.

Series [3] relates to T3, dCas12j-8 WT D369A;E567A;D658A (bacteriophage (metagenome)).
T3 sequence: T1 sequence with R258E, R313D, R495D, R527D
As to conditions: HEK293T cells; panel 1c (compare within a panel only); scale: mean GFP / mean GFP of wild type, printed, no background subtraction.

For series [4], the system named is T4, dCas12j-8 E258R E258R;D369A;E567A;D658A (bacteriophage (metagenome)).
T4 sequence: T1 sequence with R313D, R495D, R527D
The note with it: HEK293T cells; panel 1c (compare within a panel only); scale: mean GFP / mean GFP of wild type, printed, no background subtraction.

Where a chain is given by its changes, count along the chain named.

As to “CUUUCAAGACUAAUAGAUUGCUCCUUACGAGGAGACACUCCCUAUCAGUGAUAGAG / TTNACTCCCTATCAGTGATAGAG / CTCTATCACTGATAGGGAGTNAA [TetO]”, the binding signal in series [1] was 5.3; in series [2], 0.475; in series [3], 1; in series [4] it was 1.68.

For the origin of these results see PMC12412624, “Engineered Cas12j‐8 is a Versatile Platform for Multiplexed Genome Modulation in Mammalian Cells”.
